B1: BAG family molecular chaperone regulator 1 (Homo sapiens), Q99933 (parent)
chain: MAQRGGARRPRGDRERLGSRLRALRPGREPRQSEPPAQRGPPPSGRPPARSTASGHDRPTRGAAAGARRPRMKKKTRRRSTRSEELTRSEELTLSEEATWSEEATQSEEATQGEEMNRSQEVTRDEESTRSEEVTREEMAAAGLTVTVTHSNEKHDLHVTSQQGSSEPVVQDLAQVVEEVIGVPQSFQKLIFKGKSLKEMETPLSALGIQDGCRVMLIGKKNSPQEEVELKKLKHLEKSVEKIADQLEELNKELTGIQQGFLPKDLQAEALCKLDRRVKATIEQFMKILEEIDTLILPENFKDSRLKRKGLVKKVQAFLAECDTVEQNICQETERLQSTNFALAE

Variants of: B1
Conditions: with hsp7c_human HSPA8, P11142
Sequence of hsp7c_human HSPA8, P11142 (P11142 whole entry, looked up): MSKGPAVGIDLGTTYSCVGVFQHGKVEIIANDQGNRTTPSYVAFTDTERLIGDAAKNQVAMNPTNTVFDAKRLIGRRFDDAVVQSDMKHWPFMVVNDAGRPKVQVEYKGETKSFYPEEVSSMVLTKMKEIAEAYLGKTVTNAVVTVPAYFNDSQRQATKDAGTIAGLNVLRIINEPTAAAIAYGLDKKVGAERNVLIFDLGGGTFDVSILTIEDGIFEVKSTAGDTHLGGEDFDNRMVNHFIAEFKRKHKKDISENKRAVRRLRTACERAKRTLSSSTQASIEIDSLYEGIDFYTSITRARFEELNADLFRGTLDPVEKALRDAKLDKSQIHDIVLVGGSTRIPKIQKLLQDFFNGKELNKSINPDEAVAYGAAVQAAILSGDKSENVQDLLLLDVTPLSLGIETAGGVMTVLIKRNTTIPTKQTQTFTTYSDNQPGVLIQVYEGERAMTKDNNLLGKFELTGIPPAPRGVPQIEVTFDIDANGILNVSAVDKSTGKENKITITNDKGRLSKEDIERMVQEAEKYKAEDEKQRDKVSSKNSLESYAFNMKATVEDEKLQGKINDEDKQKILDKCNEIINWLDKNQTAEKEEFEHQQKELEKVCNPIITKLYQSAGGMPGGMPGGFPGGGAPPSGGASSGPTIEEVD

Row | effect of a mutation on the interaction | Variant
1 | decreasing interaction | R308A

Variants of: B1
Conditions: with hsp7c_human HSPA8, P11142
Remark: another data set of the same source

Row | effect of a mutation on the interaction | Variant
2 | decreasing interaction | K309A
